Test results from patent publication US20220281949A1.

Columns and labels:
[1] = target: DR1-restricted TCR HA1.7; experiment: flow cytometry: HA1.7-transduced primary CD4+ T cells stained with PE wild-type DR1 dextramer and anti-CD4
[2] = target: DR1-restricted TCR HA1.7; experiment: flow cytometry: TCR-transduced primary human T cells stained with PE class II dimer and anti-CD4

| percent of cells in the dextramer+ CD4+ quadrant [1] | Substance | percent of cells in the dimer+ CD4+ quadrant [2] |
| --- | --- | --- |
| 0.1% | CLIP, DR1 dextramer (peptide-MHC) | – |
| – | Control (DR1 L114W/V143M+2reps dimer) (peptide-MHC) | 0.1% |
